Measurements as given in patent publication US20120316113A1, “FGF BASED FIBRIN BINDING PEPTIDES” (Baxter Healthcare S.A., priority 2011, published 2012).
“Also recorded” adds a separate entry of the source.

What was measured:
[1] = biological target: T1, fibrinogen (Homo sapiens, UniProt P02671+P02675+P02679); assay: Fibrinogen binding assay by ELISA; conditions: plate coated with 1 mg/ml fibrinogen, various concentrations, anti-His6-peroxidase detection
T1 sequence (P02671 20-629 limits assumed): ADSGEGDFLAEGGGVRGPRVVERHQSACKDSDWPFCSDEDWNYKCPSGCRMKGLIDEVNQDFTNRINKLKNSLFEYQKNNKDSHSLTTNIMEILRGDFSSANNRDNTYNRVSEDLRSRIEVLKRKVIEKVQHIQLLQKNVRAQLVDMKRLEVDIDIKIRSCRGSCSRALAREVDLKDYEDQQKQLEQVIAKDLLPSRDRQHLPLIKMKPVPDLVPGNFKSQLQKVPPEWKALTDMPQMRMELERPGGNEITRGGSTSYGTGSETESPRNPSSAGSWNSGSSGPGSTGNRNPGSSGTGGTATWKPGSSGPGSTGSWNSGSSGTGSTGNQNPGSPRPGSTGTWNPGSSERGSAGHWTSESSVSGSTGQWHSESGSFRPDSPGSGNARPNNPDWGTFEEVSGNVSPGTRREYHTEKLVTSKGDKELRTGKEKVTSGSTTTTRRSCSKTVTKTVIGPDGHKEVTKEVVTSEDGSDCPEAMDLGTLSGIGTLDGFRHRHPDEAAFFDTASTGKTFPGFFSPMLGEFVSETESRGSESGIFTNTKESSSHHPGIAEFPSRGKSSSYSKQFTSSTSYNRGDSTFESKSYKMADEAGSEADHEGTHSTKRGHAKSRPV
T1 sequence (P02675 31-491): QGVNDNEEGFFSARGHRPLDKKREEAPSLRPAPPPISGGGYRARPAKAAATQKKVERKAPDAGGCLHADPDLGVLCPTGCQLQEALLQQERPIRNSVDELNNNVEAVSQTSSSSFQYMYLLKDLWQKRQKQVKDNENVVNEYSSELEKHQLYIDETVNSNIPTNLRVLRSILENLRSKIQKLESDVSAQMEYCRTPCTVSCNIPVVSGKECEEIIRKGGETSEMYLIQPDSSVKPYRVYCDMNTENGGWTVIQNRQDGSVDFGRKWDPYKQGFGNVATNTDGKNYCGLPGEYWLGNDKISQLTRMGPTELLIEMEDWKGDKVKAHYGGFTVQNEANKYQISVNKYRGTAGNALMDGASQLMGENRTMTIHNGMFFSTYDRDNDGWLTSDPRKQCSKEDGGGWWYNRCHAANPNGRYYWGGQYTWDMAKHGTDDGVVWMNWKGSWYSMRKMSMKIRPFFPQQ
T1 sequence (P02679 27-433 limits assumed): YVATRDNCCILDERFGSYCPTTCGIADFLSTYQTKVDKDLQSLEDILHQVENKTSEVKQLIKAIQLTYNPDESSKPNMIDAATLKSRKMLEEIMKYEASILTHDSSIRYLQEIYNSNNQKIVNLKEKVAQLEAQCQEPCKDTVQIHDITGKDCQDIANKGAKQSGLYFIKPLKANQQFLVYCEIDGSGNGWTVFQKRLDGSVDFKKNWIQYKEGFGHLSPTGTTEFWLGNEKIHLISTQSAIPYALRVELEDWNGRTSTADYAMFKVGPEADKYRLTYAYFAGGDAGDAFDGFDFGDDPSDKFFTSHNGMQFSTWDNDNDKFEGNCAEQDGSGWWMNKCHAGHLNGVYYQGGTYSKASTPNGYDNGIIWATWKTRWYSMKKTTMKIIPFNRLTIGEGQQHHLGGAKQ
Description: (§1) A polystyrene 96-well plate (Nunc® Maxisorp EUSA-plates) was coated with 1 mg/ml fibrinogen (Tisseel®, Baxter AG, Vienna) overnight at 4° C. and then blocked with blocking solution (PBS+1% BSA) for 2 hours at room temperature CRT). After washing three times with PBS, purified peptides were added in various dilutions to the plate and incubated for 1 hour at RT. After the three times washing with PBS, a monoclonal anti-His6-peroxidase antibody (Sigma-Aldrich, Vienna), diluted in PBS+0.1% Tween (Sigma-Aldrich, Vienna) was added and incubated for 1 hour at RT. Finally, the plate was washed three times with PBS again and wells were incubated with o-phenylenediaminehydrochlorid substrate. Absorbance was measured at 492 nm and 620 nm. For fibrin binding analysis, the plate was first coated with fibrinogen overnight at 4° C. and then incubated with 10 I.U./ml thrombin (Tisseel, Baxter AG, Vienna) for 30 minutes at 37° C. The following procedure was the same as described above. For the surface plasmon resonance (SPR) method fibrinogen was coupled to a gold sensor chip (10% COOH—(PEG)6-C11—SH, 90% OH(PEG)3-C11—SH; Reichert Analytical, NY, USA) by amine chemistry using EDC (1-ethyl-3-[3-dimethylaminopropyl]carbodiimide hydrochloride) and NHS (N-hydroxysuccinimide) (Pierce, Ill., USA). Uncoupled sites on the gold sensor chip were blocked with 1 M ethanolamine pH 8.5 (Sigma-Aldrich, MO, USA). The purified recombinant proteins and peptides were passed over the chip's surface at a flow rate of 0.4 ml/min to 0.8 ml/min and allowed to interact. The signals were detected and recorded at the Reichert SR7000 Surface Plasmon Resonance Analytical Instrument (Reichert Analytical, NY, USA). After each measurement the sensor chip surface was regenerated by a pulse with 100 mM phosphoric acid (Mallinckrodt Chemicals, NJ, USA) after each application of the samples. Association and dissociation signals were fitted to one association curve using a prism software calculation program.
Purified, proteins and peptides in different concentrations were used for testing the binding affinity to fibrinogen and fibrin (FIG. 5).

[2] = biological target: T1, fibrinogen; assay: Surface plasmon resonance (SPR) binding to fibrinogen coupled to gold sensor chip; conditions: for binding signal (SPR): fibrinogen on sensor chip, fitted association curves
Description: as §1

[3] = test system: mouse myoblast cell line (C2C12); assay: Biological activity: viability (MTT) assay of mouse myoblast C2C12 cells; format: cell-based; conditions: for proliferative activity / cell growth effect: 48 hours, DMEM+1% FCS, MTT
Description: A moose myoblast cell line (C2C12; ECACC (Sigma-Aldrich, Vienna)) was grown in Dulbecco's Modified Eagle Medium (DMEM) with 10% fetal calf serum (FCS). At 50-60% confluence cells were trypsinized and transferred to a 24-well plate (1×10^4/well).
Following a 48-hour-culture period at 37° C., cells were washed with DMEM only and then covered with medium (DMEM+1% FCS) containing various concentrations of hFGF-2 or hFGF-2 peptides. After 48 hours number of viable cells was determined by adding 3-(4,5-dimethylthiazol-2-yl)-2,5-diphenyltetrazolium bromide (MTT, Sigma-Aldrich, Vienna) as previously described {M05}.

Sequence | binding affinity to fibrinogen [1] | binding signal (SPR) [2] | activity retained relative to the full length protein ([3]; relative to full length hFGF-2) | binding affinity to fibrinogen ([1]; listed as Pep5) | proliferative activity / cell growth effect [3] | binding characteristics to fibrinogen (SPR) ([2]; compared to full-length recombinant hFGF-2)
EDGRLLASKCVTDECFFFERLESNNYNTYRSRHHHHH (EDGRLLASKCVTDECFFFERLESNNYNTYRSRHHHHH; synthetic peptide pep 3 (37 aa), peptide #3, pep3 with C-terminus 5x HIS-tag) [also expressed recombinantly] | high affinity | weak and short binding signals | approximately 50% |  |  | 
FERLESNNYN TYRSRHHHHH (FERLESNNYNTYRSRHHHHH; synthetic peptide pep 5 (20 aa), peptide #5, pep5 with C-terminus 5x HIS-tag) | nearly no binding affinity | weak and short binding signals |  | little binding affinity | did not stimulate C2C12 cell growth; also recorded: little biological activity | 
KCVTDECFFFERLESNNYNTYRSRHHHHH (KCVTDECFFFERLESNNYNTYRSRHHHHH; synthetic peptide pep 4 (29 aa), peptide #4, pep4 with C-terminus 5x HIS-tag) | significantly lower binding | significantly lower compared to hFGF-2 but more consistently over a longer period of 300 seconds; also recorded: lower binding signals than that of hFGF-2 |  |  | less activity, but similar to full length hFGF-2 | confirmed the binding affinity to fibrinogen
